Experimental findings from US6617114B1, “Identification of drug complementary combinatorial libraries” (priority 1996, dated 2003) are described below.

Where no end group is shown, it is not given here.

In one test the target is estrogen receptor α (ER) (Homo sapiens, UniProt P03372). Description: Phage ELISA competition on immobilized estrogen receptor. Background: ELISA stands for enzyme-linked immunosorbent assay.
The target in test [1] is T1, GST portion of the GSTUL44 fusion (Schistosoma japonicum, UniProt P08515).
T1 construct: made in house; host or cells: E. coli DH5aF′
Description: Phage ELISA competition on immobilized GSTUL44, GST-specific phage. Type of test: binding. The following applies: various concentrations of competitor. How it is done: (§1) To map the. binding site for the UL44 specific phage displaying the constrained peptide from the X10C library, we competed this phage for binding with linear double stranded DNA. To show the specificity of binding for the substrates and the phage, both phage were competed with both substrates. Microtiter plates were coated with GSTUL44 protein and blocked as described above. Phage specific for either the GST portion or the UL44 portion of the fusion were then added to separate wells and at the same time various concentrations of either GSH or DNA were added. It is important to keep in mind that these phage were isolated from the same affinity selection run.

The next test has as its target T2, UL44 (Human cytomegalovirus, UniProt P16790).
T2 construct: made in house; host or cells: E. coli DH5aF′
Description: Phage ELISA competition on immobilized GSTUL44, UL44-specific phage. Type of test: binding. The note with it: various concentrations of competitor. How it is done:
as §1

Test [2] addresses T3, Agrobacterium faecalis beta-glucosidase (Agrobacterium sp., UniProt P12614).
T3 sequence (P12614 1-459): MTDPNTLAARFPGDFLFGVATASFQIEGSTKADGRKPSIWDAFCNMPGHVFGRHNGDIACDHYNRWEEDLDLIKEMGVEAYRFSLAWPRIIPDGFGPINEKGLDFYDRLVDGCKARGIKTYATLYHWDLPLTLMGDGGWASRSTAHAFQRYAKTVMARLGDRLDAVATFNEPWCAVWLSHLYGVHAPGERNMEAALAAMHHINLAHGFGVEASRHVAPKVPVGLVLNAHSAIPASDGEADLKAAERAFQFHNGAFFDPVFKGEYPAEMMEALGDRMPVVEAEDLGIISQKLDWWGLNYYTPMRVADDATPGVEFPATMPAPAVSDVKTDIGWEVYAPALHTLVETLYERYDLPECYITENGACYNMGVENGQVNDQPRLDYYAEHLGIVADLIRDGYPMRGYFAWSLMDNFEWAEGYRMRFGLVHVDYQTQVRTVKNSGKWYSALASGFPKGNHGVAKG
Kind of test: Phage ELISA competition with conduritol on beta-glucosidase. In kind it is binding. The following applies: 3 mM conduritol for 3 hours. As to the method: For the first method of affinity purification, phage libraries were mixed with 1 μg biotinylated target protein in solution and allowed to incubate at room temperature for 4 hours. Phage:protein complexes were then captured on streptavidin paramagnetic beads (Promega, cat#Z5482) by adding beads and incubating the tubes while rotating at room temperature for 30 minutes. The complexes were then drawn to the sides of the tubes using a magnet and the beads were washed with TBST containing 5 mM biotin. Beads were washed once in the first round of panning and 3 times for each additional round. Phage were eluted and amplified using the sequential procedure described in example 3. In the second method of affinity purification, phage libraries were mixed with 1 μg biotinylated target protein that was first captured on streptavidin paramagnetic beads. After the protein was bound, the beads were washed once with TBST containing 5 mM biotin to block the remaining binding sites on streptavidin. The libraries and beads were then mixed at room temperature on a rotator for 4 hours and washed, eluted and amplified as above. Phage ELISAs were carried out by first coating a microtiter plate (Immulon4, Dynex) with 1 μg streptavidin, followed by blocking with BSA. Biotinylated protein was then added to the wells and allowed to bind to the streptavidin for 1 hour. […]

A further test concerns the target T4, GST-UL44 (Human cytomegalovirus, UniProt P16790).
T4 construct: made in house; host or cells: E. coli DH5aF′
Kind of test: Enzyme Linked Spectrophotometric Assay (ELSA) for CMV UL44. Type of test: binding. How it is done: IMMULON-4 (cat.#011-010-3855) 96-well microtitration test plates were purchased from Dynatech. Bovine serum, albumin (BSA) (A2153), Streptavidin alkaline phosphatase (SA-AP) (S2890), TWEEN-20 detergent (P1379), and p-nitrophenyl phosphate tablets (pNPP) (N-1891, N-2770) were purchased from Sigma. Phosphate buffered saline (PBS) (21600-010) was obtained from Gibco-BRL. Ultrapure glycerol (#16374) was purchased from USB. Biotinylated surrogate ligands were prepared as a 1 mM stock solution in the appropriate solvent (H2O or 10% acetonitrile). SA-AP was prepared as a 1 mg/ml stock solution in PBS containing 10% glycerol and stored in aliquots at −80° C.
Target protein was immobilized in microtiter wells by incubating 0.5-2.0 μg per well in 100 μl of 0.1 M NaHCO3 overnight at 4° C. […] During the 1 hour blocking period, the SA-AP:surrogate ligand conjugate was prepared by mixing 2 μg SA-AP and 50 pmol biotinylated surrogate ligand for each well of target protein. (This corresponds to a 1:1 ratio of biotinylated peptide to biotin binding sites.) The mixture was incubated at room temperature for 15-20 minutes and then diluted with Tris-buffered saline-TWEEN-20 detergent (TBST) 10 mM Tris-HCl, pH 8.0, 150 mM NaCl, 0.05% TWEEN-20 detergent such that there was 100 μl of conjugate per well. […]
After blocking, the wells were washed once with 200 μl TBST. […] The absorbance was read at 405 nm.

Test [3] concerns the target T5, carboxypeptidase B from pig pancreas (pig), P09955.
T5 chain: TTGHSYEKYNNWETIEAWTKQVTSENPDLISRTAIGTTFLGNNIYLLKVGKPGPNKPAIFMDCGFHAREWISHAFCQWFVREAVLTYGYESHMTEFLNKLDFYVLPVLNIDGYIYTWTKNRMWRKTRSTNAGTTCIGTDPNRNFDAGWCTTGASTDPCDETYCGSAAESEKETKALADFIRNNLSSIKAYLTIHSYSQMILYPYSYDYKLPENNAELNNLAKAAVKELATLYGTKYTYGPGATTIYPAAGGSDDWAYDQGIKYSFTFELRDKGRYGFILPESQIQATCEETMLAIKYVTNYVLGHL
Description: cross reactivity phage ELISA.

The target of test [4] is T6, Yeast alcohol dehydrogenase (yeast), P00330.
T6 chain: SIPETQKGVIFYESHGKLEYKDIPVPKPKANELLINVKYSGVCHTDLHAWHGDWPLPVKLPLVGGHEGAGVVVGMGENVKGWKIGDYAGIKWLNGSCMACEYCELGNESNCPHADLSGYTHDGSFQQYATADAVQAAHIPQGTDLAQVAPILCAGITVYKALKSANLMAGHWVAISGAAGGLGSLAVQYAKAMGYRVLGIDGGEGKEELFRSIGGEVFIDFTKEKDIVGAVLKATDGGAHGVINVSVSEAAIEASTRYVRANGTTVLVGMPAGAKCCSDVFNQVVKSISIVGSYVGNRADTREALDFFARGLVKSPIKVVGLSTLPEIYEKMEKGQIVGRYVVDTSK
Description: cross reactivity phage ELISA.

Test [5] concerns the target T7, E. coli proline tRNA synthetase (E. coli), P16659.
T7 chain: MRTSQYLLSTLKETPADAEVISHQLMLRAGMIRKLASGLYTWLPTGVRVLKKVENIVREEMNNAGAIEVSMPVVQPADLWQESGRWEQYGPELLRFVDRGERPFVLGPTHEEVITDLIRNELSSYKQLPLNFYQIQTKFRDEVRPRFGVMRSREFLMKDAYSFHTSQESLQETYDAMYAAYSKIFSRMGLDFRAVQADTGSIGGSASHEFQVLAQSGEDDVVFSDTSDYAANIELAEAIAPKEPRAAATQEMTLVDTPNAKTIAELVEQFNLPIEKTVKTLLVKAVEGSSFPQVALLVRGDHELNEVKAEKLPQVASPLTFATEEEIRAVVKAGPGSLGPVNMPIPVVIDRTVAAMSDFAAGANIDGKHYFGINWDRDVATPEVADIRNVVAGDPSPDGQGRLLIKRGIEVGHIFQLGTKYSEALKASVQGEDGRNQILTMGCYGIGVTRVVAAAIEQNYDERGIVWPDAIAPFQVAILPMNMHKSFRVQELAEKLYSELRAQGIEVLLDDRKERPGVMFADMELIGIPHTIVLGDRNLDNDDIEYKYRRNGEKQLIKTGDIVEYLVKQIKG
Description: cell-based or functional assay.

Test [6] addresses T7, E. coli proline tRNA synthetase (E. …). Kind of test: tRNA charging (enzyme activity) assay, competitive in respect to proline.

Chain of estrogen receptor α (ER) (P03372 whole entry, the tested form may be a part): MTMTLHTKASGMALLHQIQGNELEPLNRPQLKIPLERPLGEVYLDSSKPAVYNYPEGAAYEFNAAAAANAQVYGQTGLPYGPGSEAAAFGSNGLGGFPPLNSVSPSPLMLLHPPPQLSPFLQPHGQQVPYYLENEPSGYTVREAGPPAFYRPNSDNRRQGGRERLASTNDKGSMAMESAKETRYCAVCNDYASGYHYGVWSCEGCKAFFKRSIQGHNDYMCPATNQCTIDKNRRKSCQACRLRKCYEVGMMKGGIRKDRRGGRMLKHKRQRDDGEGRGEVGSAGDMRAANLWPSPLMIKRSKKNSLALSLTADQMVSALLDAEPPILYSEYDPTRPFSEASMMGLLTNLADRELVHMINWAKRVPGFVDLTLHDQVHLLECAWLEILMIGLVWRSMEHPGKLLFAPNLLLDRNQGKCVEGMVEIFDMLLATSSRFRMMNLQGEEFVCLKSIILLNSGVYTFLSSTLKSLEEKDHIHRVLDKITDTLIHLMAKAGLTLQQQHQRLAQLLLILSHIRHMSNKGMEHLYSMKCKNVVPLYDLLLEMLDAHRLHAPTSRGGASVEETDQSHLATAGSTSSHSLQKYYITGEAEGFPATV
T4 sequence (P16790 whole entry): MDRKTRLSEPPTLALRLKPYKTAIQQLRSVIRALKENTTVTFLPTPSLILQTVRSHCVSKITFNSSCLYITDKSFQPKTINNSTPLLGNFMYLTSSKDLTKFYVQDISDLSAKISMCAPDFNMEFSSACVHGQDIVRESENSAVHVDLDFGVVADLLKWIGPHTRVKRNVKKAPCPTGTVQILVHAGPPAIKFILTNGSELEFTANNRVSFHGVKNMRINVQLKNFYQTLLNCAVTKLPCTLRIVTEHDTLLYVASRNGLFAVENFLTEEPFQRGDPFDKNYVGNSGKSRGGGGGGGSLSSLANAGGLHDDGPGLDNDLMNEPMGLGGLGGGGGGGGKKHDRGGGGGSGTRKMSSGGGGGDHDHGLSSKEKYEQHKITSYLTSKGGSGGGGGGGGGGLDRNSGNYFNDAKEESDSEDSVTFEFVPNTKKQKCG
T1 sequence (P08515 whole entry, the tested form may be a part): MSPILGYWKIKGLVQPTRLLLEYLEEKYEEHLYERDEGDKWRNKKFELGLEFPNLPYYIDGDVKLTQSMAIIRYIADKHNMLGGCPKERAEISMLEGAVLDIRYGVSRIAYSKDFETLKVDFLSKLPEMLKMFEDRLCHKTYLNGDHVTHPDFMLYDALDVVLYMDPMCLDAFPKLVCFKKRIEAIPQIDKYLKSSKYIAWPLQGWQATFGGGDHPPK
T2 sequence (P16790 whole entry): as the sequence (P16790 whole entry) above

4-hydroxytamoxifen [reference compound]: the “competition with ER binding phage selected in the absence of estradiol” value on estrogen receptor α (ER) is on record as “does not inhibit”.

Consider `N[C@@H](CCC(=O)N[C@@H](CS)C(=O)NCC(=O)O)C(=O)O` [GSH, glutathione], for which the “binding of GST specific phage to GSTUL44 in presence of competitor” value in test [1] is reported as “competed in a dose dependent fashion”. The “binding of UL44 specific phage (X10C peptide) to GSTUL44 in presence of competitor” value at UL44 was “no effect”.

On to `O[C@@H]1[C@H](O)[C@@H](O)C=C[C@H]1O` [conduritol], for which, in test [2], the “binding of phage from group 1 after conduritol” value is given as “unaffected” and the “binding of phage from group 2 after conduritol” value was “inhibited”.

Turning to “Biotin-H-Ser-Gly-Ser-Gly-Glu-His-Val-Cys-Ser-Trp-Gly-Trp-Gly-Arg-Cys-OH [UL44 BioKey]”, the “specificity of binding of biotinylated peptide” value on GST-UL44 (tested on streptavidin, GST-UL44, GST, GST-SrcSH3) was “binds specifically to UL44”.

Turning to “H-Ser-Gly-Ser-Gly-Glu-His-Val-Cys-Ser-Trp-Gly-Trp-Gly-Arg-Cys-OH (H-SGSGEHVCSWGWGRC-OH; cysteine pairing not given here) [non-biotinylated UL44 peptide]”, in the test with GST-UL44 (self-competition), the “competition of biotinylated UL44 peptide binding” value is “competed specifically”.

Consider “W L D G L P L Y H E V (WLDGLPLYHEV) [Peptide 5]”, for which, in the test with estrogen receptor α (ER) (phage selected with estradiol, 100 μM tamoxifen, nafoxidine, clomiphene), the “effect of antiestrogens on phage binding to ER” value is given as “S S L T S R D F G S W Y A S R * (SEQ ID NO:156)”.

B1: phage displaying … (peptide)
peptide: SSFRELKPGWWSYSR
modifications: not checked
As for B1, the fold ELISA signal on the specific target vs any other target tested in test [3] was > 10 fold.

B2: phage displaying … (peptide)
peptide: SRLLEVSPGWWQMSR
modifications: not checked
B2: the fold ELISA signal on the specific target vs any other target tested in test [3] is > 10 fold.

B3: phage displaying … (peptide)
peptide: SSLLNESRLQWSTSR
modifications: not checked
In the case of B3, in [4], the fold ELISA signal on the specific target vs any other target tested was > 10 fold.

B4: non-biotinylated ProRS peptide (peptide)
peptide: SRVCAIWPDLDGCSR
modifications: not fully specified; cysteine pairing not given here
A word on the Ki: it is a measure of affinity in units of concentration, obtained from inhibition or displacement. Higher therefore signals weaker binding. B4 registered a charging assay (enzymatic activity of the target) in test [5] of 50 % inhibition. Also, the Ki in test [6] is > 500 µM.

B5: phage displaying … (peptide)
peptide: SSWGDYFNWRDGLSR
modifications: not checked
For the molecule B5, in test [3], the fold ELISA signal on the specific target vs any other target tested is > 10 fold.

B6: phage displaying … (peptide)
peptide: SSWQGNVLLGNWISR
modifications: not checked
Regarding B6, the fold ELISA signal on the specific target vs any other target tested in test [4] is > 10 fold.

B7: phage displaying … (peptide)
peptide: SRQVEVFKPWPVYSR
modifications: not checked
On to B7, for which the fold ELISA signal on the specific target vs any other target tested in test [4] is > 10 fold.

B8: phage displaying … (peptide)
peptide: SVSVGMKPSPRP
modifications: not checked
Consider B8, for which the fold ELISA signal on the specific target vs any other target tested in test [4] is > 10 fold.

B9: phage displaying … (peptide)
peptide: SSNYWWQSPVLSRHSR
modifications: not checked
Regarding B9, the fold ELISA signal on the specific target vs any other target tested in [4] is > 10 fold.

B10: phage displaying … (peptide)
peptide: SSSFKPWPIYLGSSR
modifications: not checked
Take B10: in [4], the fold ELISA signal on the specific target vs any other target tested was > 10 fold.
